# Patent publication US10907134B2, “Mutated genes for the catalytic protein of oplophorus luciferase and use thereof” (JNC CORPORATION, priority 2013, dated 2021)
# Changes are numbered by the printed parent chain. In names and notes the source's numbering stands.
# B1: KAZ-A54I: KAZ with single amino acid substitution A54I, SEQ ID NO: 6 (protein)
# chain: FTLADFVGDWQQTAGYNQDQVLEQGGLSSLFQALGVSVTPIQKVVLSGENGLKIDIHVIIPYEGLSGFQMGLIEMIFKVVYPVDDHHFKIILHYGTLVIDGVTPNMIDYFGRPYPGIAVFDGKQITVTGTLWNGNKIYDERLINPDGSLLFRVTINGVTGWRLCENILA
# B2: KAZ-V44I: KAZ with single amino acid substitution V44I, SEQ ID NO: 4 (protein)
# chain: B1 chain with V44I, I54A
# B3: KAZ-Y138I: KAZ with single amino acid substitution Y138I, SEQ ID NO: 8 (protein)
# chain: B1 chain with I54A, Y138I
# B4: KAZ-V44I-A54I: KAZ mutant with two amino acid substitutions V44I and A54I, SEQ ID NO: 10 (protein)
# chain: B1 chain with V44I
# B5: KAZ-V44I-Y138I: KAZ mutant with two amino acid substitutions V44I and Y138I, SEQ ID NO: 12 (protein)
# chain: B1 chain with V44I, I54A, Y138I
# B6: KAZ-A54I-Y138I: KAZ mutant with two amino acid substitutions A54I and Y138I, SEQ ID NO: 14 (protein)
# chain: B1 chain with Y138I
# B7: KAZ-V44I-A54I-Y138I: KAZ mutant with three amino acid substitutions V44I, A54I and Y138I, SEQ ID NO: 16 (protein)
# chain: B1 chain with V44I, Y138I
# B8: KAZ: wild 19 kDa catalytic protein of Oplophorus luciferase (19kOLase), amino acid sequence SEQ ID NO: 2 (protein, listed as Oplophorus gracilirostris)
# chain: B1 chain with I54A
# Test: Substrate specificities of KAZ mutants (ZZ-fused, crude enzyme), CTZ
# Type: biochemical
# Conditions: ZZ-fused crude enzyme; 1 μg substrate; integrated for 60 seconds
# Description: (§1) The coelenterazine analogues used for substrate specificity studies were synthesized by the methods described in publications. Specifically, bis-coelenterazine was synthesized by the method described in Nakamura et al. (1997) Tetrahedron Lett. 38: 6405-6406; furimazine by the method described in Hall et al. (2012) ACS Chem. Biol. […]; and, 6h-coelenterazine, f-coelenterazine and 6h-f-coelenterazine by the methods described in Inouye et al (2013) Biochem. Biophys. Res. Commun. 437: 23-28.
# (§2) DTT was added to the crude enzyme solutions obtained in EXAMPLE 17 at a final concentration of 1 mM and the mixtures were allowed to stand in an ice water for more than 5 hours in the same manner as Example 8. A luminescence reaction was started by the addition of 1 μL each of the crude enzyme solutions to 100 μL of TE containing 1 μg of coelenterazine (manufactured by JNC Corp.) or its analogues. The luminescence activities were determined using a luminometer (manufactured by Atto Inc.: AB2200) for 60 seconds, and the maximum intensity of luminescence (Imax) was shown as relative luminescence activity.
row,Molecule,Relative Luminescence Activity CTZ Int.
1,B1,9.0
2,B2,5.9
3,B3,5.9
4,B4,12.7
5,B5,9.9
6,B6,19.1
7,B7,66.7
8,B8,1.0

# Same assay, conditions: ZZ-fused crude enzyme; 1 μg substrate; maximum intensity of luminescence
row,Molecule,Relative Luminescence Activity CTZ Imax
1,B1,8.4
2,B2,7.2
3,B3,7.5
4,B4,15.3
5,B5,17.1
6,B6,23.1
7,B7,66.7
8,B8,1.0

# Same assay, conditions: coelenterazine versus its analogues
row,Molecule,Substrate specificity
1,B4,high substrate specificity for coelenterazine
2,B5,high substrate specificity for coelenterazine
3,B6,high substrate specificity for coelenterazine
4,B7,high substrate specificity for coelenterazine

# Test: Substrate specificities of KAZ mutants (ZZ-fused, crude enzyme), h-CTZ
# Type: biochemical
# Conditions: 1 μg substrate, integrated for 60 seconds
# Description: as §1, §2
row,Molecule,Relative Luminescence Activity h-CTZ Int.
1,B1,6.9
2,B2,2.2
3,B3,3.0
4,B4,8.7
5,B5,9.7
6,B6,12.9
7,B7,33.2
8,B8,0.7

# Same assay, conditions: 1 μg substrate, maximum intensity of luminescence
row,Molecule,Relative Luminescence Activity h-CTZ Imax
1,B1,11.8
2,B2,3.7
3,B3,3.9
4,B4,17.9
5,B5,19.1
6,B6,24.2
7,B7,83.1
8,B8,1.1

# Test: Substrate specificities of KAZ mutants (ZZ-fused, crude enzyme), 6h-CTZ
# Type: biochemical
# Conditions: not given
# Description: as §1, §2
row,Molecule,Luminescence activity compared with dnKAZ with 6h-coelenterazine
1,B7,higher luminescence activity than dnKAZ

# Same assay, conditions: 1 μg substrate, integrated for 60 seconds
row,Molecule,Relative Luminescence Activity 6h-CTZ Int.
1,B1,2.1
2,B2,0.6
3,B3,0.3
4,B4,5.6
5,B5,5.3
6,B6,6.1
7,B7,11.1
8,B8,0.2

# Same assay, conditions: 1 μg substrate, maximum intensity of luminescence
row,Molecule,Relative Luminescence Activity 6h-CTZ Imax
1,B1,1.6
2,B2,0.4
3,B3,0.2
4,B4,4.5
5,B5,4.3
6,B6,5.8
7,B7,12.9
8,B8,0.1

# Test: Substrate specificities of KAZ mutants (ZZ-fused, crude enzyme), f-CTZ
# Type: biochemical
# Conditions: 1 μg substrate, integrated for 60 seconds
# Description: as §1, §2
row,Molecule,Relative Luminescence Activity f-CTZ Int.
1,B1,4.9
2,B2,2.0
3,B3,2.4
4,B4,5.2
5,B5,7.4
6,B6,9.2
7,B7,9.5
8,B8,0.8

# Same assay, conditions: 1 μg substrate, maximum intensity of luminescence
row,Molecule,Relative Luminescence Activity f-CTZ Imax
1,B1,8.2
2,B2,2.1
3,B3,2.4
4,B4,11.3
5,B5,13.3
6,B6,19.7
7,B7,43.8
8,B8,0.9
